Data set [1] concerns the target T1, Saccharomyces cerevisiae Pol32, PCNA-binding subunit of DNA polymerase delta (ScPol32) (Saccharomyces cerevisiae), P47110.
T1 chain: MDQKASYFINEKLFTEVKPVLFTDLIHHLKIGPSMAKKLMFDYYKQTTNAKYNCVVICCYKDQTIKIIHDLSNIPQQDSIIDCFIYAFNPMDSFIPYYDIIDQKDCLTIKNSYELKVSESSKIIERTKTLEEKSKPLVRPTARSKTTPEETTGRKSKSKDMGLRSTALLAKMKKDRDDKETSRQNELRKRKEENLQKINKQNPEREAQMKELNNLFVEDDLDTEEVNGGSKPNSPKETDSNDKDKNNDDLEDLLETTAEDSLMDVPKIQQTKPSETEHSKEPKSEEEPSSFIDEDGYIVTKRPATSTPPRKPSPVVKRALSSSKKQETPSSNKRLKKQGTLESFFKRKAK
In words: ITC. To be noted: remark: other sources report otherwise.

The data set “native gel or EMSA” concerns the molecule itself. In words: native gel or EMSA.
The target in data set [2] is T2, Saccharomyces cerevisiae Pol32, PCNA-binding subunit of DNA polymerase delta (ScPol32) (Saccharomyces cerevisiae, UniProt P47110 1-350).
T2 sequence: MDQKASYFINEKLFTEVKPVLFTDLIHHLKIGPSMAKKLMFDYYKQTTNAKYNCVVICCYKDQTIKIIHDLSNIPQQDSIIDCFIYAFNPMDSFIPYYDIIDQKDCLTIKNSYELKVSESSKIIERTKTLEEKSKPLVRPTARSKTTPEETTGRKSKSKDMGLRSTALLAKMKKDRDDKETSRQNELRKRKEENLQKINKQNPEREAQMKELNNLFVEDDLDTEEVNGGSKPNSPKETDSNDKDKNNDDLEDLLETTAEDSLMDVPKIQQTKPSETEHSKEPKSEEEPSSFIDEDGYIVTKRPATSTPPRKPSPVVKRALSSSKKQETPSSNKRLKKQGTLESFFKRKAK
The data set is described as follows: ITC.

B1: Saccharomyces cerevisiae PCNA (ScPCNA), wild type, P15873 1-258 (natural protein)
chain: MLEAKFEEASLFKRIIDGFKDCVQLVNFQCKEDGIIAQAVDDSRVLLVSLEIGVEAFQEYRCDHPVTLGMDLTSLSKILRCGNNTDTLTLIADNTPDSIILLFEDTKKDRIAEYSLKLMDIDADFLKIEELQYDSTLSLPSSEFSKIVRDLSQLSDSINIMITKETIKFVADGDIGSGSVIIKPFVDMEHPETSIKLEMDQPVDLTFGAKYLLDIIKGSSLSDRVGIRLSSEAPALFQFDLKSGFLQFFLAPKFNDEE
In the case of B1, in data set [1], the equilibrium dissociation constant (Kd) (as a rule, the equilibrium constant for the complex coming apart) was determined as 2.75 µM; the dH is -1.48 kcal/mol; the stoichiometry N – broadly, a count of units in the complex or per binding partner – worked out at 1.05.

B2: Neurospora crassa proliferating cell nuclear antigen (NcPCNA), GST tag cleaved (natural protein)
chain: MLEARLEQASILKKVVDAIKDLVQDCNFDCNDSGIALQAMDNSHVALVSMMLKTETFSPFRCDRNIALGVNLTSLTKVLRAAQNEDILTLKAEDAPDVLNLVFESSENDRISEYDLKLMDIDQEHLGIPDTEYAATISMPSSEFKRITTDLMAMSESVNIEASKDGVKFSCQGDIGNGSITLRQHTNVDKPSENIEIELSEPVSLTFSLKYLVNFCKASALSSTVKICLSNEVPLLVEYNISASSYLRFYLAPKIGDEE
Take B2: in the data set “native gel or EMSA”, the “stoichiometry N” value came to 3. Further, in data set [2], binding was put at a Kd of 4.28 ± 0.325 µM, the dH is -1.24 ± 0.0554 kcal/mol and the “stoichiometry N” value is 1.06 ± 0.035.

The record behind these values is paper PMC8319368 (The Journal of Biological Chemistry, 2021).
